experiment: soluble on expression in E. coli; label from the status in PepcDB or PDB records

Sequence | soluble on expression in E. coli
MGSDKIHHHHHHALGDQTLRKGQSHPDVKELQEALKKKGFFNYHTSTGYFGSITEDAVREFQMKHGLQVDGIAGPQTLNALLSQMNGNNGGQQTSSSAPNSTSNSTILRFGSSGQAVRDLQEKLKAKGYYNHSITGQYGRITTEAVREFQRANRLTVDGIAGPQTLAALTNQAPAASAPQYNAPVQQTTVLRQGSRGDAVRDLQRSLKDLGYYKSSIDGIFGAGTTTAVREFQRKMGLTVDGVAGPQTLNALHVNPTPNTSNGQSSSSGGNTASSGNRGATITNIVANASELIGTPYVWGGTTPRGFDCSGFVQYVFAQQGVSIPRTVAQMWNAGTSVSQPSVGDIVFFDTTGGPSHNGIYIGNNQFIHSGSSTGVTIASMNNSYWASRYLGAKRLY | not soluble
MGSDKIHHHHHHMSAFWPFRLTTGCNVNLKFLETFIWVAKLRSFSLAADKLHSTQAAISSRISVLEQELGAKLFTREPKGVALTRAGERVLQHAEQVNESMTRLYASLQDEKFAFGTIRIGAMDSAIHSWFVNFVSDVMHYYPNLDIEVTSETALNLNEQLRRGMLDMVIQTDMLRDETIRSIEVLELSMGWVAAANSPIVSQEAYDTPTAALRGLGRERLITYSRHSRPHQDLLRLMQSYGIGESRVSCVNSVAAMIQLTQAGFGVAAMPPALVPELLNSGVLRQLEGLEAPPPLPFVIAWRSGTNWTERLVEVAVETVSKYAARLGQDAARLVV | not soluble
MDRKVAREFRHKVDFLIENDAEKDYLYDVLRMYHQTMDVAVLVGDLKLVINEPSRLPLFDAIRPLIPLKHQVEYDQLTPRRSRKLKEVRLDRLHPEGLGLSVRGGLEFGCGLFISHLIKGGQADSVGLQVGDEIVRINGYSISSCTHEEVINLIRTEKTVSIKVRHIGLIPVKSSPDEPLTWQYVDQFVSES | soluble
MGSDKIHHHHHHMNFPIDEKLIREKQNELHIKDLGMASIRDLVALVTNLEKATGTKFCRMEMGVPGLPAPQIGIETEIQKLREGVASIYPNLDGLPELKQEASRFAKLFVNIDIPARACVPTVGSMQGCFVSFLVANRTHKNREYGTLFIDPGFNLNKLQCRILGQKFESFDLFEYRGEKLREKLESYLQTGQFCSIIYSNPNNPTWQCMTDEELRIIGELATKHDVIVIEDLAYFGMDFRKDYSHPGEPLYQPSVANYTDNYILALSSSKAFSYAGQRIGVLMISGKLYEREYPDLEESFGRLRFGEALSSSALYALSSGATHSAQWGMAAMLKACNDGEYNFRDSVIEYGRKARIMKKMFLDNGFNIVYDKDGNEPLADGFYFTVGYKGMDSSKLIEKFVRYGMCAITLKTTGSKRNEAMRICTSLLPESQFPDLEKRLQMLNAEG | not soluble
MGSDKIHHHHHHMTTAQQTENKGQQTRTVAELVEDIKALTTEIQELYCLDQIPWVLGVSWGKDSSTVLQLVWNAIAALPPEKRTKTVYVITTDTQVENPVVSAWVRKSLQNLKIAAKEQGMPIDPHLLQPVIQDTFWVNLIGKGYPAPRNQFRWCTPRLKINPANQFIREIVRANGETILVLGTRKAESSKRAATMKKHQVDRVRDRLSPNASLPNSLIYTPIEDWSNNDVWIYLNQWNNPWGQSNKELFTMYRGATADNECPLVVDTSTPSCGDSRFGCWVCTLVSKDKSMEAMIQNDEEKEWMQPLLDIRNELDIKDDRDKRDFRRIWGEVQLFERNKDGKISVDPIPGPYTKYWREYWLKRLLEAQIKTRRTAPENMRDITLITLEEMSEIRRIWLEDKHEFDDSLPRIYQEVTGEEFQDPRPGADYSLLGRDEWIVLEEICEGDAMHLELMAKLLDTERQYRKKTRRVGIYETLEKCFNTSSRSPEDAIKNARLKRELSEAVSQGDVAKVKQMTLGDVAAINEVDEGQSESDEEVTWASMKFKKENSEE | not soluble
MAAKRPPASTLKWCQQEMGPICEGIGMVVRSQIGYDGRRIEKQIRRKALQTVVMGGQDVDPLKEPNKTNAPLLSPTLPSTNEALQRARVVAAGIETFAKLMSQGTYPGSAGFTVSETGERKYMKQTSPVQSNIVANLMATADKLSKGVISLAPFPLPTITKLGTWVIANPTAQLPIPPQLKSAIPAIGQIETLIQSILGVQGPVSSVSRAPRKLKLEGVTDQVVLEPETIHATVDVEPIDKTLTKEEAEFLIKAARSVDDDNAETAIFGTQKAKPKVYRPELPKNFEVNLEMGNVHTLTRSNESSVPATRIGRLATFGQLAFGLLGGATAEVTRRTFGIGKRLQEEGIPKNPFLSEANADRIVATLCRVRGAALKLGQMLSIQDSSTVPPALLQIFERVRQSADFMPIKQVHRQMKDAFGDDWREKFEHFDDKPFACASIGQVHKAVLKDGRNVAVKVQYPGVAEGIDSDIDNLVSVLSVGGIFPKGMFLDAFVGVARRELKQECDYEREARAMKKFRELIADWQDVYVPEVIDELSSSRVLTTELVYGKPVDACVEEPQVVRDYIAGKFIELCLKEIFLWRFMQTDPNWSNFFLGKHPKTGEPRLVLLDFGASRAYGKKFVDIYMNIIKSAYDGDKKKIIEYSREIGFLTGYETSVMEDAHVESVMIMGETLASNHPYNFANQDVTMRIQKLIPVMLEHRLTSPPEEIYSLHRKLSGCYLLAAKLKATVSCGGLFHEIHENYVFGEDGIDINID | not soluble
MKRWIAIILIALMPAAQAGKAAKVTLVVDDVPVVQVLQTLAEQERQNLVVSPDVSGTLSLHLTDVPWKQALQTVVNSAGLVLRQEGNILHVHSQAWQKEHSARQDAERLRFQANLPLENRSISLQYADAGELAKAGEKLLSAKGTIMVDKRTNRLLLRDNRAALAELEKWVSQMDLPVAQVELAAHIVTINEKSLRELGVKWTLADATQAGSVGDVTTLSSDLSVAAATSRVGFNIGRINGRLLDLELSALEQKQLLDIIASPRLLASHLQPASIKQGSEIPYQVSSGESGATSVEFKEAVLGMEVTPTVLQKGRIRLKLHISQNVPGQVLQQADGEVLAIDKQEIETQVEVKSGETLALGGIFSRKNKSGSDSVPLLGDIPWLGQLFRHDGKEDERRELVVFITPRLVATELEHHHHHH | soluble
VRIPALERGPGLKDLAIFSRQLATMLGAGLTLLQALAILERQTENRKFREILKQVRTDVEGGMAFSEALSKHKIFSRLYVNLVRAGETSGGLDLILDRLASFLEKELELRGKIRSA | soluble
MISSPHKLTGDIMTKRTKRTRRLFSAEFKLEAAQLVLDQNYSVTEAAQAMNVGKSTMDKWVRQLREERQGKTPKASPMTPEQIEIRELKKKLARLEEHNEILKKATALLMSDSLNNSLEHHHHHH | soluble
DIVMTQSHKFMSTSVGDRVSITCKASQDVSTAVAWYQQKPGQSPKLLISWASTRHTGVPDRFTGSGSGTDYTLTISSVQAEDLALYYCQQHYTTPLTFGAGTKLELKRADAAPTVSIFPPSSEQLTSGGASVVCFLNNFYPKDINVKWKIDGSERQNGVLNSWTDQDSKDSTYSMSSTLTLTKDEYERHNSYTCEATHKTSTSPIVKSFNRN | soluble
GPGSMAVQPGKVLAEQFSRQGIQYEESTDVLWCSLCTKADSLEIISRATVEDVLEHCRLRQHLLLMEKETVKEHYCPVEINGRSFLLDHNCVYPSTMFGKGRMLLDDTLGCVMTEDVCGGVKLLPRHKYTVVEIVIPPAGTPIPKDPSYYVERPVRSRKCHEKFDSWIQVHNSSVEGESALMKRRRIAFSQLNM | not soluble
MAERKYFGTDGVRGKVGQFPITPDFALKLGWAAGKILATQGTKQVLIGKDTRISGYMLESALEAGLAAAGLSAAFVGPMPTPAVAYLTRTFRAEAGIVISASHNPYYDNGIKFFSANGEKLPDEVEEAIEALLDQPMDYVESDQLGKAIRINDAAGRYIEFCKGTFPADASLKGYKIVVDCAHGATYHIAPNVMRELGAEVIEIGTHPNGLNINDKCGATDISALQQAVLTSKADLGVAYDGDGDRIIMVDHLGNKVDGDQILFIIAREALRSGKLKGGVVGTLMSNMGLEIALKHLAIPFTRANVGDRYVLEQLKEKNWKLGGENSGHIIVLDKNTTGDGIIASLEVLAAMEAHKMSLNDLTHAVPLFPQVLLNVRFDGGNNPLENAAVKALAKDIETRLVGKGRILLRKSGTEPLIRVMVECEDAVLAQQYAEEIVSAIQNH | not soluble

From the DeepSol protein solubility set
